# B1: Ornithodoros moubata Complement Inhibitor with a His6 tag in the C-terminus (other)
# chain: MDSESDCTGSEPVDAFQAFSEGKEAYVLVRSTDPKARDCLKGEPAGEKQDNTLPVMMTFKNGTDWASTDWTFTLDGAKVTATLGNLTQNREVVYDSQSHHCHVDKVEKEVPDYEMWMLDAGGLEVEVECCRQKLEELASGRNQMYPHLKDCGGGGSENLYFQGSHHHHHH
# Assays:
# [1] = target: T1, Human complement protein C5 (human, UniProt P01031 19-673; P01031 678-1676); assay: cell-based or functional assay
# [2] = target: T1, Human complement protein C5
# T1 sequence (P01031 19-673, chain 1 of 2): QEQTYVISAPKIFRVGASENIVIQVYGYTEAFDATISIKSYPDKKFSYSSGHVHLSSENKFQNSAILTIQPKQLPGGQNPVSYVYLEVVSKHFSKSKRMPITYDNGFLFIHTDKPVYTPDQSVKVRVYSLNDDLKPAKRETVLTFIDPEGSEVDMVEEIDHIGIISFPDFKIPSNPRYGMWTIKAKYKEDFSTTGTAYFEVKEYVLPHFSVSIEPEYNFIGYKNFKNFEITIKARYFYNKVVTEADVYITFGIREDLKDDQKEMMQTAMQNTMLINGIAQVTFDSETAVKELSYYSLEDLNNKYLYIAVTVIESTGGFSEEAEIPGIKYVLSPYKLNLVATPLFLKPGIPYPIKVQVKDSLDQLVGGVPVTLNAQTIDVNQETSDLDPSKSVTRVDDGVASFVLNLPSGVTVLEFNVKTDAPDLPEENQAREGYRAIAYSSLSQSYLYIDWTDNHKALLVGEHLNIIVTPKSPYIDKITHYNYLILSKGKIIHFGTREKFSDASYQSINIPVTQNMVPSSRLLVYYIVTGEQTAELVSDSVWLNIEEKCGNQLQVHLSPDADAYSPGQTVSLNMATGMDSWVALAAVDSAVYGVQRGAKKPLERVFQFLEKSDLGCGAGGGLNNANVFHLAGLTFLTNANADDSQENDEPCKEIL
# T1 sequence (P01031 678-1676, chain 2 of 2): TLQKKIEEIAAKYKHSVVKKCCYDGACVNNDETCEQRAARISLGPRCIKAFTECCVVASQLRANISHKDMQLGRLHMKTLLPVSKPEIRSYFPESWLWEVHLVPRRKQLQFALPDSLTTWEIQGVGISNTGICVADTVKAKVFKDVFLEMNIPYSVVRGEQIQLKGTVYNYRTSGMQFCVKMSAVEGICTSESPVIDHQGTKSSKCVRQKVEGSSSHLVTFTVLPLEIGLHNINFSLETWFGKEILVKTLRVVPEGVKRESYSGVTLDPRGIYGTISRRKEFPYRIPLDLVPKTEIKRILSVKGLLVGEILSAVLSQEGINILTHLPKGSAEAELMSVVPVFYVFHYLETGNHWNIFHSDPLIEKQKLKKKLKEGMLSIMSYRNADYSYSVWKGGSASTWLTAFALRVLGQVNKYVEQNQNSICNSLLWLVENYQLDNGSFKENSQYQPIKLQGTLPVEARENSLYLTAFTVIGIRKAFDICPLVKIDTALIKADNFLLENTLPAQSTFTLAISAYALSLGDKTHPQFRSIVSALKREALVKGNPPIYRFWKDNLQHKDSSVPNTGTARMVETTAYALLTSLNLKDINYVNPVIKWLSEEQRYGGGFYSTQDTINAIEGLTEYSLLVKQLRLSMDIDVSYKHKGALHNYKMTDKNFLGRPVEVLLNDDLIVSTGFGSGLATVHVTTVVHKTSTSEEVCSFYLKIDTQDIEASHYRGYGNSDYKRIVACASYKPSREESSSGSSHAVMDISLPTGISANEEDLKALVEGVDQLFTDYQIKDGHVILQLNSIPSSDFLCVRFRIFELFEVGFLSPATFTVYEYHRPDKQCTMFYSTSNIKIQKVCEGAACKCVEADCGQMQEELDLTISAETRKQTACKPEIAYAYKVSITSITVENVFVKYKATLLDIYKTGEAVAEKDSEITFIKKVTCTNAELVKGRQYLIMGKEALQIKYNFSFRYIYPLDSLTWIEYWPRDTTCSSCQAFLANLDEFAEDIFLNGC
binder,measurement,setting,value
B1,IC50 of inhibition of hemolysis of antibody sensitized sheep erythrocytes,[1],0.3 to 0.5 nM
same,IC50,[2],1.5 nM
